The values that follow come from publication PMC5709234 (Journal of the American Society for Mass Spectrometry, 2017).

Values joined by “and” are separate entries in the source; they are usually repeats but may differ in a detail not shown here. Identical values can stand only once. Like-named read-outs stand apart in the source and are kept apart here.

Series [1] concerns the molecule itself. The series can be described thus: native MS.
Series [2] deals with the molecule itself. Nature of the series: native MS. The source holds these as a separate data set.

B1: Pyruvate kinase type III (Oryctolagus caniculus) (enzyme)
chain: not shown
Broadly, the stoichiometry N is the number of molecules, sites or subunits per partner or assembly. Take B1: the “stoichiometry N” value in the series “native MS [1]” was 2 and 4.

B2: Enolase 1 (S. cerevisiae) (enzyme, UniProt P00924 2-437, looked up)
chain: AVSKVYARSVYDSRGNPTVEVELTTEKGVFRSIVPSGASTGVHEALEMRDGDKSKWMGKGVLHAVKNVNDVIAPAFVKANIDVKDQKAVDDFLISLDGTANKSKLGANAILGVSLAASRAAAAEKNVPLYKHLADLSKSKTSPYVLPVPFLNVLNGGSHAGGALALQEFMIAPTGAKTFAEALRIGSEVYHNLKSLTKKRYGASAGNVGDEGGVAPNIQTAEEALDLIVDAIKAAGHDGKVKIGLDCASSEFFKDGKYDLDFKNPNSDKSKWLTGPQLADLYHSLMKRYPIVSIEDPFAEDDWEAWSHFFKTAGIQIVADDLTVTNPKRIATAIEKKAADALLLKVNQIGTLSESIKAAQDSFAAGWGVMVSHRSGETEDTFIADLVVGLRTGQIKTGAPARSERLAKLNQLLRIEEELGDNAVFAGENFHHGDKL
As to B2, the “stoichiometry N” value in “native MS [2]” was 2.
